Test results taken from PMC6834639.

Target: T1, WT Aβ (1–10)
T1 chain: DAEFRHDSGY
Test: native MS; IM-MS of oligomers of one Aβ fragment alone; Aβ (1–10) and Aβ (1–16) 600 µM, 10 mM NH4OAc; oligomers of many sizes seen, a printed size is the largest one
Details: remark: other sources report otherwise

stoichiometry N: 19
B1: WT Aβ (1–10) (peptide)
peptide: DAEFRHDSGY
